Laboratory results: doi:10.1101/2021.12.30.474520, “Substrate Specificity for Human Histidine Methyltransferase SETD3” (bioRxiv, 2021)
Ends that are not written are not given here.

What was measured:
[1] = molecular target: T1, human SETD3 (residues 1-497) (human, UniProt Q86TU7 1-497); experiment: ITC; peptide (0.5-1 mM) titrated into SETD3 (0.05 mM) pre-incubated with sinefungin (SFG) (1:10); 25 °C; 20 mM Tris-HCl pH 8.0, 150 mM NaCl; one set of binding sites model; conditions: both partners purified
T1 construct: The methods describe one recombinant human SETD3 with an N-terminal His6-tag without giving limits; Whether that protocol and tag apply to the 1-497 construct used for ITC and crystals is surmised; In ITC and in the crystals SETD3 was pre-incubated with SAH or sinefungin (SFG) at 1:10; also called SETD3_(1-497); histidine methyltransferase SETD3
T1 sequence (looked up): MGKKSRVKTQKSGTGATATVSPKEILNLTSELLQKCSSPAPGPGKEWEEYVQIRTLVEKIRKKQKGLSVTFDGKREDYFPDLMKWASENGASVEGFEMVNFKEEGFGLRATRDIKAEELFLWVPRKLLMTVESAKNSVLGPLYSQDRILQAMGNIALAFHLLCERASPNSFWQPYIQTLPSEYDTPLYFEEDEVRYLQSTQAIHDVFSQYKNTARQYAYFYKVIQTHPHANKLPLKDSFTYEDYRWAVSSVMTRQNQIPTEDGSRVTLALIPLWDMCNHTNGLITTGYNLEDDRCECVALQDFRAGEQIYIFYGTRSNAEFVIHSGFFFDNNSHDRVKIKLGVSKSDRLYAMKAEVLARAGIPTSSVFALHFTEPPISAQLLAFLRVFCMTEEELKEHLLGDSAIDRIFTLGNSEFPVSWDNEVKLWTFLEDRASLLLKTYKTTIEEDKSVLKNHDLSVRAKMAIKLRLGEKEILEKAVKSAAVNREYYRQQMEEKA

[2] = molecular target: T1, human SETD3 (residues 1-497); experiment: ITC; peptide (0.5-1 mM) titrated into SETD3 (0.05 mM) pre-incubated with SAH (1:10); 25 °C; 20 mM Tris-HCl pH 8.0, 150 mM NaCl; one set of binding sites model; conditions: both partners purified

- Kd [1]: 1000 nM
- Kd [2]: 700 nM
B1: β-actin peptide, residues 66-81, with His73 (βA-His73) (peptide, UniProt P60709 66-81, looked up)
peptide: TLKYPIEHGIVTNWDD-NH2
notes: β-actin, human, 16-mer, residues 66-81; Made on Rink amide resin, so a C-terminal amide is surmised; also called wild type βA-His73; wild type β-actin peptide; source: synthetic peptide (microwave-assisted SPPS on Rink amide resin, RP-HPLC)
